This test addresses T1, human C1q (human, UniProt P02745 23-245; P02746 28-253; P02747 29-245).
T1 construct: Bought protein; also called first component of the classical complement cascade
Nature of the test: ELISA, antibody coated, C1q detected with rabbit anti-human C1q. A general note: In an ELISA, binding on a coated surface is turned into a signal by an enzyme label.

T1 sequence (P02745 23-245 limits assumed, chain 1 of 3): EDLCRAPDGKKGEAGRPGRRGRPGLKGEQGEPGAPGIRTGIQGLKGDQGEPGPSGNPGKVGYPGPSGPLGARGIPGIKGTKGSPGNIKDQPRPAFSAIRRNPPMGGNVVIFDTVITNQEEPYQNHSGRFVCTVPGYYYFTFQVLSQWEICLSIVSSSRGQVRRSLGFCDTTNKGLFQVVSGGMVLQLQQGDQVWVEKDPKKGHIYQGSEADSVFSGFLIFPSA
T1 sequence (P02746 28-253 limits assumed, chain 2 of 3): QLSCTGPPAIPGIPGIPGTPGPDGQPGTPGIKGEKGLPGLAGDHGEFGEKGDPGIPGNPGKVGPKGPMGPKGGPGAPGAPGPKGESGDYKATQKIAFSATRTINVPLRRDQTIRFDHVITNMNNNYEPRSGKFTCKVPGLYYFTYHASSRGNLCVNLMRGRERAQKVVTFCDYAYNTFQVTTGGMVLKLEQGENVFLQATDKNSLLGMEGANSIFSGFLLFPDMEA
T1 sequence (P02747 29-245 limits assumed, chain 3 of 3): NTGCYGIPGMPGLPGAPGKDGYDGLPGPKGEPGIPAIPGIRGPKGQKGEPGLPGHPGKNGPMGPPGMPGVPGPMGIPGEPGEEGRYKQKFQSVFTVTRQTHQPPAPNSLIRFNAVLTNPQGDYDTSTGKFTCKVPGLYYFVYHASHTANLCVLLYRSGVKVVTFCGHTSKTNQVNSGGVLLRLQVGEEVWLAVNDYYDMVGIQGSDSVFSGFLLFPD
Procedure: In short, microtiter ELISA plates (Greiner, Germany) were coated overnight at RT with the test antibodies serially diluted from 10 μg/ml to 0.06 μg/ml in PBS. Plates were emptied and wells were blocked with 200 μl ELISA-diluent per well (0.1 M NaPO₄, 0.1 M NaCl, 0.1% gelatin and 0.05% Tween-20), at RT for 30 minutes. […] After washing the plates (3×) with PBST, wells were incubated with HRP-conjugated swine anti-rabbit IgG-Fc (DAKO, P0300, lot #069) diluted in ELISA diluent (1:2500, 100 μl/well, RT, 1 hour). Thereafter, plates were washed thrice and assays were developed with freshly prepared 1 mg/ml ABTS solution (ABTS: 2,2′-azino-bis[3-ethylbenzthiazoline-6-sulfonic acid]); 2 tablets of 5 mg in 10 ml ABTS buffer, Boehringer Mannheim, Ingelheim, Germany) at RT in the dark for 30 minutes.

B1: 7D8-HG (antibody)
heavy: EVQLVESGGGLVQPDRSLRLSCAASGFTFHDYAMHWVRQAPGKGLEWVSTISWNSGTIGYADSVKGRFTISRDNAKNSLYLQMNSLRAEDTALYYCAKDIQYGNYYYGMDVWGQGTTVTVSSASTKGPSVFPLAPCSRSTSESTAALGCLVKDYFPEPVTVSWNSGALTSGVHTFPAVLQSSGLYSLSSVVTVPSSSLGTKTYTCNVDHKPSNTKVDKRVAPEFLGGPSVFLFPPKPKDTLMISRTPEVTCVVVDVSQEDPEVQFNWYVDGVEVHNAKTKPREEQFNSTYRVVSVLTVLHQDWLNGKEYKCKVSNKGLPSSIEKTISKAKGQPREPQVYTLPPSQEEMTKNQVSLTCLVKGFYPSDIAVEWESNGQPENNYKTTPPVLDSDGSFFLYSRLTVDKSRWQEGNVFSCSVMHEALHNHYTQKSLSLSLGK
light: not shown
notes: Half-molecule of one heavy and one light chain; also called hingeless IgG4 anti-CD20; IgG4 HG
For the molecule B1, the binding result is listed as “no binding”.

Source of the values: US20110045007A1 (Genmab, published 2011).
